Experimental data reported in US20210130444A1 (University of California, published 2021).

B1: rAb-53 (recombinant monoclonal NMO-IgG, non-mutated) (antibody, V domains shown)
VH: QVQLQESGAGLVKPSETLSLTCTVSGGSISGHYWNWIRQPPGKGLEWIGYIHYSGSTNYNPSLKSRVTISVDTSKNQFSLKLSSVTAADTAVYYCARAEGRGWSAFYYYYMEVWGKGSTVSVSS
VL: EIVLTQSPGTLSLSPGERATLSCRASQTVRTNYLAWFQQKPGQAPRLLIFGASSRATGIPDRFSGSGSGTDFTLTISRLEPEDFAVYYCQQYGSSPWTFGQGTKVEIKR
notes: Human recombinant IgG made in HEK293 cells; also called NMO-IgG (rAb-53)
B2: rAb-58 (recombinant monoclonal NMO-IgG) (antibody, V domains shown)
VH: VQLVESGGGLVQPGGSLRLSCAASGFTFRGYAMNWVRQAPGKGLEWVASISGSGSITQYADSAKGRFTITRDNSKSTLYAHVSSLRADDTAVYYCAKGDYVFDYWGQGTLVTVSS
VL: DIQMTQSPSALSASVGDTVTITCRASQSIRSWLAWYQQKPGKAPKLLIYKASDLQSGVPSRFSGSGSGTDFTLTISGLQPDDFATYYCQHYNSYPYTFGQGTKVEIRR
notes: Human recombinant IgG made in HEK293 cells

Columns and labels:
[1] = biological target: Myc-tagged human M1 AQP4 on U87MG cells (human) (UniProt P55087); assay: fluorescence ratio imaging on U87MG cells (FIG. 6C)
Myc-tagged human M1 AQP4 on U87MG cells (human), sequence (P55087 whole entry): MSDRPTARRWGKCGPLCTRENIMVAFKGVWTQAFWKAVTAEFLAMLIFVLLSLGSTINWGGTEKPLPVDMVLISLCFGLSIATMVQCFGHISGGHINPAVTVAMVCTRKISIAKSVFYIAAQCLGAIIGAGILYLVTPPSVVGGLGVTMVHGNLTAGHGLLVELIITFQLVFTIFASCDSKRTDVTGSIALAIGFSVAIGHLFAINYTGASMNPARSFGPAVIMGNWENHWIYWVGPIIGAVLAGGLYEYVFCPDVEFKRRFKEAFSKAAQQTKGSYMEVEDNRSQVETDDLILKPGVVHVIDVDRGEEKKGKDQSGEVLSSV

[2] = biological target: Myc-tagged human M23 AQP4 on U87MG cells (human) (UniProt P55087); assay: as above
Myc-tagged human M23 AQP4 on U87MG cells (human), sequence (P55087 whole entry, canonical isoform): as the sequence (P55087 whole entry) above

[3] = biological target: Myc-tagged human M1 AQP4 on U87MG cells (human) (UniProt P55087); assay: fluorescence ratio imaging on U87MG cells expressing Myc-tagged AQP4, anti-mouse IgG Alexa 488 detection
[4] = biological target: Myc-tagged human M23 AQP4 on U87MG cells (human) (UniProt P55087); assay: as above
[5] = biological target: T1, human AQP4 M23 isoform on U87MG cells (human, UniProt P55087 23-323); assay: fluorescence ratio imaging on U87MG cells, single-site binding model
T1 construct: Tetramers that assemble into orthogonal arrays of particles (OAPs); The chain begins at Met-23 of the long isoform; also called M23 AQP4; M23-AQP4
T1 sequence (P55087 23-323 limits assumed): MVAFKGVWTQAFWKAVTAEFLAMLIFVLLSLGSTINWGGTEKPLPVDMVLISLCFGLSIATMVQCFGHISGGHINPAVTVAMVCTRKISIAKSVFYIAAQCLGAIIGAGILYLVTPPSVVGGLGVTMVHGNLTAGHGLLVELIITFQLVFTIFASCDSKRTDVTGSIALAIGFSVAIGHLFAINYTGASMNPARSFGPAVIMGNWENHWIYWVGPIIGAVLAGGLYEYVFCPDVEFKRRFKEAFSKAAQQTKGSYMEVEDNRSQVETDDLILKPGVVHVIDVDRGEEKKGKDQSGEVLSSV

[6] = biological target: T2, purified recombinant human M1 AQP4 reconstituted in proteoliposomes (human, UniProt P55087 1-323); assay: surface plasmon resonance (Biacore T-100), AQP4 proteoliposomes on L1 chip, antibody injected
T2 construct: 3% (wt/wt) AQP4 in phosphatidylcholine:phosphatidylserine liposomes on a Biacore L1 chip; also called AQP4-reconstituted proteoliposomes; AQP4-proteoliposomes
T2 sequence (P55087 whole entry, form in doubt): as the sequence (P55087 whole entry) above
Description: Surface plasmon resonance. […] The mixture was dialyzed (10,000 dalton cut-off) against PBS at 4° C. for 48 h. […] Proteoliposomes were immobilized on a L1 sensor chip (Biacore) with four injections at 10 min/injection at 2 μl/min to achieve 6000 response units of proteoliposomes immobilization. The surface was then washed with two 20 s injections of 50 mM NaOH at 100 μl/min, and checked for surface quality with a 300 s injection of 0.01 mg/ml BSA at 20 μl/min. Flow channel 1 (Fc 1) was immobilized with 0% AQP4 as reference, and Fc 2 contained the AQP4 proteoliposomes. Binding studies were conducted with PBS at a flow rate of 15 μl/min. rAbs in PBS were injected for 80 s followed by a post-injection period of 240 s. Regeneration was performed by injection of 50 mM NaOH at 100 μl/min for 20 s. Binding studies were done in duplicate. Data were analyzed using Biacore T100 Evaluation software.
Binding of each monoclonal recombinant antibody to AQP4 in reconstituted proteoliposomes was measured by surface plasmon resonance.

[7] = biological target: M23:CCA mixtures (human M23 AQP4 co-expressed with M1-C13A/C17A) on U87MG cells (human) (UniProt P55087); assay: two-colour fluorescence ratio imaging on transiently transfected U87MG cells, rAb-53 titration
[8] = biological target: T3, human AQP4 M1 isoform on U87MG cells (human, UniProt P55087 1-323); assay: two-colour fluorescence ratio imaging on U87MG cells, rAb titration, single-site binding fit
T3 construct: Water channel; forms individual tetramers, no OAPs; also called M1 AQP4; M1-AQP4
T3 sequence (P55087 whole entry, canonical isoform): as the sequence (P55087 whole entry) above
Excerpt: (§1) FIG. 4B summarizes concentration-dependence binding curves for three recombinant NMO-IgGs, together with curve fits for a single-site binding model.

[9] = biological target: T1, human AQP4 M23 isoform on U87MG cells; assay: as above
Excerpt: as §1

[10] = biological target: T1, human AQP4 M23 isoform on U87MG cells; assay: two-colour fluorescence ratio imaging on transiently transfected U87MG cells, rAb-53 titration
[11] = biological target: T1, human AQP4 M23 isoform on U87MG cells; assay: as above; remark: listed apart in the source
[12] = biological target: T1, human AQP4 M23 isoform on U87MG cells; assay: as above; remark: listed apart in the source

Molecule	Kd [1]	Kd [2]	EC50 (read off the curve) [3]	EC50 (read off the curve) [4]	Kd [5]	Kd [6]	koff [6]	kon [6]	EC50 (read off the curve) [7]	Kd [8]	EC50 (read off the curve) [9]	EC50 (read off the curve) [10]	EC50 (read off the curve) [11]	EC50 (read off the curve) [12]	Kd [9]
monoclonal mouse anti-Myc IgG (Covance) (antibody)	10 nM	10 nM	2 µg/mL	1 µg/mL											
B1					44 nM	27 nM	0.00038 s⁻¹	14000 M⁻¹ s⁻¹	6 µg/mL	2800 nM	~7 µg/mL	~7 µg/mL	~7 µg/mL	~7 µg/mL	
B2										147 nM	~10 µg/mL				68 nM
